Source: the nanobody polyreactivity screen of Harvey et al. (2022)

Assay: yeast display, Sf9 membrane polyspecificity reagent, FACS + sequencing; frameworks hold sequencing errors
Summary of the method: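 Using colony PCR, genes from sorted yeast display clones were amplified, then sequenced on MiSeq at 2 × 250 and filtered by CDR length. The clones had been stained with 10% biotinylated, detergent-solubilized Sf9 membrane reagent for 1 hour at 4 °C and sorted by FACS into low and high (top ~1%) gates on anti-HA and streptavidin fluorescence. Polyreactivity labels come from the gate of origin.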

Sequence	polyreactivity (PSR sort gate)
QVQIVESGRGLVQAGGSLRLSCASSGFTFVSYAMGWYRQAPGKERELDASISKRGGTTYYADSVKGRFTISRDNAKNTVYLQMNSLKPEDTAVYYCYARDTRRYVTYDSGYDYWGQGTQVTVSS	high polyreactivity
QVQIVESRGCLVQAGGSLRLICAASGSIFLANAMGWYRQAPRKEREFVPAITSSGGSTYYADSVKGRFTISRDNAKNSVYLQMNSLKPEDTAVYYCNVRPRYRWRSTPYGYWGQGTQVTVSS	high polyreactivity
QVQIVESRGGIVQAGGSLRLRCAASGSTFAGNAMGWYRQPPGKERELVAAITSSGGTTYYADSVKGRFTISRDNEKNTVYLQMNSLKPEDSAVYYCAAKSRRTRRSYYWGQGTQVNVSS	high polyreactivity
QVQIVESRVGLVQAGGSLRLSCAAYGSIFYYNAMGWYRQAPGKERELVAAITSSGGSTYADSVKGRFTISRDNAKNTVYLQMNSLKQEDTAVYYCATVAHGLWSGSGYIYAYDYWGQGTQVSVSS	low polyreactivity
QVQLAESGGGLVQAGGSLRLSCAASGSTFPRNPMGWYRQAPGKERELVATITSSGGGTYYADSVKGRFTISRDNAKITVYLQMNSLKPEDTAVYYCNADGPAGDAFDYWGQGTQVTVSS	low polyreactivity
QVQLAESGGRLVQAGGRLRLSCAASGRTSTCYAMGWYRQPPGKERELVAAISYRGGSTYYADSVKGRFTISRDNAKNSVYLHLNSLKPEDTAVYYCAAKWYWRGDYWGQGTQVTVSS	high polyreactivity
QVQLDESGGGLVQAGGSLRLSCAASGRTFGVYAMGWYRQAPGKERELVAAIRWSGGGTYYADSVKVRFTISRDNAKNTVYLQMNSLKPEDTAVYYCAATLENSPYTRYTDMYYWGQGTQVTVSS	low polyreactivity
QVQLEDSGGCLVQAGGRLRLSCAASGITYGRNTMGRYRQAPGKERELVAAIDSGGNTYADSVKGRFTISRDNAKITVYLQMNSLKPEDTAVYYCAVYGGEFSSYGYWGQGTQVTVSS	low polyreactivity
QVQLEDSGGGLVQAGGSLGLSCAASGITFSVYDMGWYRQAPGKERQLVAAISWSGGSTYYADSVKGRFTISRDNAKNTVFLQMNSLKPDDTAVYYCAAEVDYWYELYDYWGLGTQVTVSS	high polyreactivity
QVQLEDSGGGLVQAGGSLRLSCAASGGTFRYNSMGWYRPAPGKERELVAGITWGGGSTYYADSVKGRFTISRDYAKNSVYLQMNSLKPEDTAVYYCNAVRPRQWWTHYGYWGQGTQVTVSS	high polyreactivity
QVQLEDSGGGLVQAGGSLRLSCAASGRIFGYNAMGWYRQAPGKERELVAAITTSGGSTYYADSVKGRFTISRDNAKNTVYLQMNSLKPEDTAVYYCARDSLQVFYPYASDDYWGQGTQVTVSS	low polyreactivity
QVQLEDSGGGLVQAGGSLRLSCAASGRIFYAYAMGWYRPAPGKEREFVASISGSGGSTYYADSVKGRFTISRDNAKNTVYLQMNSLKPEDTAVYYCAKRYPFFSSGLSPYNYWGQGTQVTVSS	high polyreactivity
QVQLEDSGGGLVQAGGSLRLSCAASGSIFYSNSMGWYRQAPGKERELVAAISSSGSRTYYADSVKGRFTISRDNAKNTVYLQMNSLKPEYTAVYYCSAVIRYTRSYDYWGQGTQLTVSS	high polyreactivity
QVQLEDSGGGLVQAGGSLRLSSAASGSTFAVYAMGWYRQAPGKERELVAAISFSGSTYADSVKGRFTISRDNAKNTVYLQMNSLKPEDTAVYYCAKEYRVFGWWYTKGDYWGQGTQVTVSS	low polyreactivity
QVQLEDSGGGLVQAGRSLLLSFAASGNTFWLNAKGRYRQAPGKERELVAAITYTDGSTYADSVKGRFTISRDNAKITVYLQMNSLKPEDSAVYYCAARYQWDWRDYYYWGQGTQVTVSS	low polyreactivity
QVQLEEAGGGLVQAGGSLRLSCAASARIIARYAMGWYRQAPGKERELVAAITGSGGSTYYADSVKGLFTISRDHANNTVYLQMNCLKPEDTAVYYCAARSVYTYYRLDYWGQGTQVTVSS	high polyreactivity
QVQLEESGAGLVQAGGRLRLSCAASGITFILYAMGWYRHAPGKERELVAAISSGGRTKYADSEKGRFTISRDNAKNTVYLQMTSLKPEDTAVYYCNVSYLVYRWNFGWSMDYWGQGTQVTVSS	low polyreactivity
QVQLEESGAGLVQAGGSLRLSCAASGRTFYRYAMGWYIQAPGKERELVAAITSGDRTYYADSVKGRFTISRDNALNTVYLQMNSLKPEYTAVYYCAARRDYWARYYYWGQGTQVTVSS	high polyreactivity
QVQLEESGAGLVQAGGSLRLSCAASGYIFDKYTLGWYRQAPGKERELVAVISSRGGSTYYADSVKGRFTISRDNAKNTVYVQMNSRKPEDTAVYYCAARFYRPSVPYRYDYWGQGTQVTVSS	high polyreactivity
QVQLEESGGAFVQAGGSLRLSCAASGFIFVPYSMGWYREAPGKEREFVAAITASGGNTYYADSVKGRFSISRDNAKNTVYLQMNSVKPEDTAVYYCAADISGSLESLDYWGQGTQVTGSS	low polyreactivity
QVQLEESGGAIVQAAGSLRLSCAASGLIFAWYALGWYRPAPGKERELVATISWNGDRTYYADSVKGRFTISRDNAKNTVYLQMNSLKPEDTAVYYCAARFGSGFNYWGKGTQVTVSS	high polyreactivity

Sequence	polyreactivity (PSR sort gate)
QVQLEESGGALVQAGGSLRLSGAASVSTFAYYAMGWYRQAPGKERELVAAISWSGGSTYYADSVKGRFTISRDNAKNTVYLLMNSLKPEDTAVYYCNKRNVLDYDYWGQGTQVTVSS	low polyreactivity
QVQLEESGGCLVQAGGSLRLSCAASGFTFYQNAMGWYRQAPGKERELVAAISSGASTYYADSVKGRFTISRDNAKNTVYLQMNSLKPEDTAVYYCAADRYKPSLRWRRPKMNYWGQGTQVTVSS	high polyreactivity
QVQLEESGGCLVQAGGSLRLSCAASGRIFGSYTMGWYRQAPGKERELVAAISDSGGSTYYADSVKGRFSISRDNAKNTVYLQMNSLKPEDTAVYYCNADWSWYNYYDFDYWGQGTQVTVSS	low polyreactivity
QVQLEESGGGFVQAGGSLRLSCAASGFIFSSNAMGWYRQAPGKERELVASISSGGSTNYADSVKGRFTISRDNAKNTVYLQMNSLKPEDTAVYYCAADGISLYATAYDYWGQGTQVTVSS	low polyreactivity
QVQLEESGGGIVQAGGSLRLSCAASGRIFYHYAMGGYRKAPGKEREWVAAISGSGGSTYYADSVKGGFTISRYNAKNTVYLQMNSLNPEDTAVFYCSTSGPQYYARNFDYCGQGTQVTVSS	low polyreactivity
QVQLEESGGGIVQAGGSLRLSCAASGSTFVLYAMGWYRPAPGKERELVAAITSGGSTYYADSVKGRFTISRDNAKNTVYLQMNSLKPEDTAVYYCAASYWDTEPGYREYDYWGQGTQVTVSS	low polyreactivity
QVQLEESGGGLDQAGGSLRLSCAASGRIFFYNAMGWYRQAPGKERELVAGISRSGTSTYYADSVKGRFTNSRDNAKNTVFLQMNSLKPEDTAVYYCAAAAWSVILWREMDYWGQGTQVTVSS	low polyreactivity
QVQLEESGGGLDQAGGSLRLSCAASGSTFYKNAMGWYRQAPGKERELVARISGRGGSTDYADSVKGRFTISRDNAKNTVYLQMNSLKPDDTAVYYCNAGKYSSSDALYDYWGQGTQVTVSS	high polyreactivity
QVQLEESGGGLFQAGGSLRLSCAASGRTFPGNAMGWYRQAPGKERELVAAISYSGGRTYYADSVKGRFTISRDNAKNTVYLQMNSLKPEDTAVYYCNAWARLGRYEYWGQGTQVTVSS	high polyreactivity
QVQLEESGGGLGQAGGSLRLSCAASGSIFAYYAMGWYRQAPGKERELVAAISWGGGNTYYADSVKGRFTISRDNAKNNVYLQMNSLKPEDTAVYYCAAEDYYYYGVAYGYWGQGSQVTVSS	high polyreactivity
QVQLEESGGGLVHAGGSLRLSCAASGFTFKYNAMGWYRQAPGKEREFVASISSGSTNYADSVKGRFTISRDNAKNTVYLQMNSLKPEDTAVYYCAASVSRGKRFRYGYVFKMDYWGQGTQVTVSS	low polyreactivity
QVQLEESGGGLVQAGCSLRLSCADSGITFGGNAMGWYRQAPGKERDLVAAIDEGGGSTYYADTVKGRFTLSRDNAKNTVYLQMHSLKPEPTAVDYCAADFGYYGYYYWGQGTQVTVST	low polyreactivity
QVQLEESGGGLVQAGGILRLSCAASGSMFVAYTMGWYRQEPGKERELVAAISRGGSTNYADSVKGRFTISRDNAKTTVYLQMNSLKPEDTAVYYCAAKVWDGQLLYYWGQGTQVTVSS	low polyreactivity
QVQLEESGGGLVQAGGILRLSCAFYYGIGWYRQATGKERELVAAINLGGGSTYYADSVKGLFTISRDNAKNTVYLQMNSLKPEDTAVYYGAADVGSRTYYVKYDYWGQGTEVTVSS	low polyreactivity
QVQLEESGGGLVQAGGRLRLSCAASGRIFSRNAMGGSRTATGKERELVAAISSSTGSTYYADSVKGRFTISRDNAKKTVYLQMNSLKPEDTAVYYCAARYWGDYFTEMNYWGQGTQVTVSS	high polyreactivity
QVQLEESGGGLVQAGGSIRLSCAASGSTFYTNAMGWYRQAPGKERELVAAISSSGDSTYYADSVKGRFTISRDTAKNTVYLQMNSLKPEDTAVYYCNADRRSYNGFRYYYWGQGTQVTVSS	low polyreactivity
QVQLEESGGGLVQAGGSIRLSCAASVSTFVGNAMGWYRKAPGKETEFVATISNSGGRTYYADSVKGRFTISRDNSKNTVYLQMNSLKPEDTAVYFCAADHPAFCPGYSFDYWGQGTQVTVTS	low polyreactivity
QVQLEESGGGLVQAGGSLRFSCAASGRIYRYAMGWYRQAPGKERELVASITYSGGSTYYADSVKGRFTISRDNAKNTVYLQMNSLKPEDTAVYYCAASTRHVHYGYWGQGTQVTVSS	high polyreactivity
QVQLEESGGGLVQAGGSLRISCAASGRTFNYNAIGWYRQAPGKERELVAAITSGGRTNYADSVKGRFTISRDNAKNTVYLQMNSLKPEDTAVYYCATEYYRYRWVGAFRYPVYYWGQGTQVTVSS	low polyreactivity
QVQLEESGGGLVQAGGSLRLICAASGCIFEYNAMGWSRQAPRKEREFVAAINNSGGRTYYADSVKGRFTISRDNANNTVYLQMNSLKPEDTAVYYCAVYSYYRRTYRREMDYWGQGTQVTVSS	high polyreactivity
